The values below come from US20260207704A1, “STAPLED PEPTIDES AND METHODS THEREOF” (priority 2022, published 2026).

Experiment [1] has as its target beta-catenin (human). Nature of the experiment: cell-based or functional assay.
Experiment [2] concerns the target beta-catenin (human). Nature of the experiment: fluorescence polarization. On the technique in general: Polarisation of emitted light reports the rotation of a fluorescent probe.

*1 amine or outer side, *2 acyl side, *3 side chain or, on linkers, in order; H or OH if unused. Bridges are numbered along the chain shown (N, C = ends). Primed or numbered codes have the meaning given here. [ ]: non-standard residue; d: D form. The star is where a group is joined. PyrS2(6) = (S)-3-amino-1-((pent-4-en-1-yloxy)carbonyl)pyrrolidine-3-carboxylic acid, stapled with another olefin-containing amino acid residue through the olefin group, O=C(OCCCC=[*:3])N1CC[C@@](N[*:1])(C(=O)[*:2])C1; B5(4) = 2-amino-2-(pent-4-en-1-yl)hept-6-enoic acid, stapled through each of its two olefin groups with other olefin-containing amino acid residues, O=C(C(CCCC=[*:3])(CCCC=[*:4])N[*:1])[*:2]; PyrS2″ = (S)-3-amino-1-((pent-4-en-1-yloxy)carbonyl)pyrrolidine-3-carboxylic acid (olefin stapling residue), C=CCCCOC(=O)N1CC[C@@](N[*:1])(C(=O)[*:2])C1; PyrS2 = (S)-3-amino-1-((pent-4-en-1-yloxy)carbonyl)pyrrolidine-3-carboxylic acid, olefin staple residue, C=CCCCOC(=O)N1CC[C@@](N[*:1])(C(=O)[*:2])C1; PyrS2(3) = (S)-3-amino-1-((pent-4-en-1-yloxy)carbonyl)pyrrolidine-3-carboxylic acid, olefin residue, C=CCCCOC(=O)N1CC[C@@](N[*:1])(C(=O)[*:2])C1; PyrS2(5) = (S)-3-amino-1-((pent-4-en-1-yloxy)carbonyl)pyrrolidine-3-carboxylic acid, C=CCCCOC(=O)N1CC[C@@](N[*:1])(C(=O)[*:2])C1; B5(5) = 2-amino-2-(pent-4-en-1-yl)hept-6-enoic acid (two olefin arms), C=CCCCC(CCCC=C)(N[*:1])C(=O)[*:2]; B5(3) = 2-amino-2-(pent-4-en-1-yl)hept-6-enoic acid, two olefin arms, C=CCCCC(CCCC=C)(N[*:1])C(=O)[*:2]; Me2Mal = 2-carboxy-2-methylpropanoyl group on the Lys side chain, CC(C)(C(=O)O)C(=O)*; 2F3MeF″ = aromatic residue, Cc1cccc(C[C@H](N[*:1])C(=O)[*:2])c1F; Phe(3-COOH) = N[C@@H](Cc1cccc(C(=O)O)c1)C(=O)O; 2F3MeF = Cc1cccc(C[C@H](N[*:1])C(=O)[*:2])c1F; Phe(2-Cl) = N[C@@H](Cc1ccccc1Cl)C(=O)O; Bta = N[C@@H](Cc1csc2ccccc12)C(=O)O; αAllylPro = C=CC[C@@]1(C(=O)O)CCCN1; BztA = aromatic amino acid residue; tBuAla = CC(C)(C)C[C@H](N)C(=O)O; 3Thi = N[C@@H](Cc1ccsc1)C(=O)O; 2F3MeF(4) = Phe analogue; BztA″ = aromatic residue; Nle = CCCC[C@H](N)C(=O)O; TfeGA = not defined here; GlnR = not defined here; PL3 = not defined here; B5 = not defined here; Aib = CC(C)(N)C(=O)O A value given as a limit tells only on which side of the number the result lay.

Chain of beta-catenin (human) (B6V8E6 146-665 limits assumed): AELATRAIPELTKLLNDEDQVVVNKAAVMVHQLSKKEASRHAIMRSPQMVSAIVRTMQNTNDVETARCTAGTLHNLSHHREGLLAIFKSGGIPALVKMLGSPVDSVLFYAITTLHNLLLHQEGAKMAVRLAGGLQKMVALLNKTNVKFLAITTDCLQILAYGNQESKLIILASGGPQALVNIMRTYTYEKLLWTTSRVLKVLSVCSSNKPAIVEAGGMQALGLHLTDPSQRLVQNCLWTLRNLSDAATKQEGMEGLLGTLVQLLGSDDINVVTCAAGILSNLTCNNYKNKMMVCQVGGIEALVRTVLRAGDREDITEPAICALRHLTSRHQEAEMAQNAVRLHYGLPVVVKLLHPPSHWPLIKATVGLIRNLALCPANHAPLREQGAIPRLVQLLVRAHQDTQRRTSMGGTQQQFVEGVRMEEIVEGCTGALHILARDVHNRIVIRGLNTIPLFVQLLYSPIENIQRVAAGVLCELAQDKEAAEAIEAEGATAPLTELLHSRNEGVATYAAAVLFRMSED

B1: I-129 (peptide)
peptide: Ac-[αAllylPro]D[tBuAla][B5(4)]D[TfeGA]AAFK[PyrS2(5)][2F3MeF][Bta][GlnR]V-NH2
modifications: bridge 10-14; not fully specified (bridges); reading uncertain; also: Lys*3 and GlnR*3 marked *3
One may read the IC50 as the midpoint of a concentration-inhibition curve. With B1, in the experiment with beta-catenin (human) [1], the NanoBRET Abs IC50 (bin >3.0 uM) was below 10000 nM. In the experiment with beta-catenin (human) [2], this molecule returned an IC50 below 50 nM.

B2: I-88 (peptide)
peptide: Ac-[PL3]N[tBuAla][B5]D[Phe(3-COOH)]QAFK[PyrS2″][3Thi][BztA][GlnR]A-NH2
modifications: staple 1-4 (inferred); bridge 10-14; not fully specified (residue 10, bridges); printed as Ac-PL3-Asn-Npg-B5-Asp-3COOHF-Gln-Ala-Phe-Lys*3-PyrS2-3Thi-BztA-GlnR*3-Ala-NH2; reading uncertain; also: Lys10 and GlnR14 marked *3
In turn, B2 gave an IC50 in the experiment with beta-catenin (human) [2] below 50 nM.

B3: I-74 (peptide)
peptide: XDQXDXKAFKXXXQA
modifications: not fully specified; Ac-PL3-Asp-GlnR**3-B5-Asp-3COOHF-Lys**3-Ala-Phe-Lys*3-PyrS2-3Thi-BztA-GlnR*3-Ala-NH2
Turning to B3, the IC50 with beta-catenin (human) [2] was below 50 nM.

B4: I-77 (peptide)
peptide: Ac-[αAllylPro]D[tBuAla][B5(4)]D[Phe(3-COOH)]AAFK[PyrS2(6)][2F3MeF(4)][Bta][GlnR]A-NH2
modifications: staple 1-4 (inferred); bridge 10-14; not fully specified (residue 10, bridges); printed as Ac-PL3-Asp-Npg-B5-Asp-3COOHF-Ala-Ala-Phe-Lys*3-PyrS2-2F3MeF-BztA-GlnR*3-Ala-NH2; reading uncertain; also: -CH=CH- in each staple reduced to -CH2-CH2-
Regarding B4, in the experiment with beta-catenin (human) [2], the half-inhibitory concentration (IC50) is below 50 nM.

B5: I-82 (peptide)
peptide: Ac-[PL3]D[tBuAla][B5]N[Phe(3-COOH)]AAFK[PyrS2″][3Thi][BztA][GlnR]A-NH2
modifications: staple 1-4 (inferred); bridge 10-14; not fully specified (residue 10, bridges); printed as Ac-PL3-Asp-Npg-B5-Asn-3COOHF-Ala-Ala-Phe-Lys*3-PyrS2-3Thi-BztA-GlnR*3-Ala-NH2; reading uncertain
In the experiment with beta-catenin (human) [2], B5 registered a 50% inhibitory concentration (IC50) below 50 nM.

B6: I-78 (peptide)
peptide: XDQXDXKAFKXXXQA
modifications: not fully specified; Ac-PL3-Asp-GlnR**3-B5-Asp-3COOHF-Lys**3-Ala-Phe-Lys*3-PyrS2-3Thi-BztA-GlnR*3-Ala-NH2
Consider B6, for which the IC50 with beta-catenin (human) [2] was below 50 nM.

B7: I-126 (peptide)
peptide: Ac-[αAllylPro]D[tBuAla][B5(4)]D[TfeGA]AAFK[PyrS2″][2F3MeF][Bta][GlnR][Aib]-NH2
modifications: bridge 10-14; not fully specified (bridges); reading uncertain; also: Lys*3 and GlnR*3 marked *3
B7 yielded a NanoBRET Abs IC50 (bin >3.0 uM) in the experiment with beta-catenin (human) [1] below 10000 nM. Also, the half-inhibitory concentration (IC50) in the experiment with beta-catenin (human) [2] is below 50 nM.

B8: I-122 (peptide)
peptide: Ac-[αAllylPro]D[tBuAla][B5(4)]D[TfeGA]LAFK[PyrS2″][2F3MeF][Bta][GlnR]A-NH2
modifications: bridge 10-14; not fully specified (bridges); reading uncertain; also: Lys*3 and GlnR*3 marked *3
B8 returned a NanoBRET Abs IC50 with beta-catenin (human) [1] above 10000 nM. In the experiment with beta-catenin (human) [2], the IC50 is below 50 nM.

B9: I-70 (peptide)
peptide: Ac-[αAllylPro]D[tBuAla][B5(3)]D[Phe(3-COOH)][Nle]AFK[PyrS2(3)][3Thi][Bta][GlnR]A-NH2
modifications: bridge 10-14; not fully specified (bridges); printed as Ac-PL3-Asp-Npg-B5-Asp-3COOHF-nLeu-Ala-Phe-Lys*3-PyrS2-3Thi-BztA-GlnR*3-Ala-NH2; reading uncertain
Take B9: the IC50 with beta-catenin (human) [2] is below 50 nM.

B10: I-3 (peptide)
peptide: Ac-[αAllylPro]DL[B5(4)]DDAAFK[PyrS2(6)][3Thi][Bta][GlnR]-NH2
modifications: bridge 10-14; not fully specified (bridges); printed as Ac-PL3-Asp-Leu-B5-Asp-Asp-Ala-Ala-Phe-Lys*3-PyrS2-3Thi-BztA-GlnR*3-NH2; reading uncertain
B10 gave a NanoBRET Abs IC50 (bin >3.0 uM) with beta-catenin (human) [1] below 10000 nM. The molecule also displayed a half-inhibitory concentration (IC50) in the experiment with beta-catenin (human) [2] below 50 nM.

B11: I-67 (peptide)
peptide: Ac-[αAllylPro]D[tBuAla][B5]D[Phe(3-COOH)][Aib]AFK[PyrS2][3Thi][Bta][GlnR]A-NH2
modifications: staple 1-4, 4-11; lactam 10-14; not fully specified; printed as Ac-PL3-Asp-Npg-B5-Asp-3COOHF-Aib-Ala-Phe-Lys*3-PyrS2-3Thi-BztA-GlnR*3-Ala-NH2; reading uncertain
For B11, the IC50 with beta-catenin (human) [2] is below 50 nM.

B12: I-137 (peptide)
peptide: Ac-[αAllylPro]D[tBuAla][B5]D[Phe(3-COOH)][Nle]AFK[PyrS2″][2F3MeF″][BztA″][GlnR]LS-NH2
modifications: bridge 10-14; not fully specified (bridges); printed as Ac-PL3-Asp-Npg-B5-Asp-3COOHF-nLeu-Ala-Phe-Lys*3-PyrS2-2F3MeF-BztA-GlnR*3-Leu-Ser-NH2; reading uncertain; also: Lys10 and GlnR14 marked *3
In the experiment with beta-catenin (human) [1], B12 gave a NanoBRET Abs IC50 (bin >1.5 uM) below 3000 nM. Moreover, the half-maximal inhibitory concentration (IC50) in the experiment with beta-catenin (human) [2] is below 50 nM.

B13: I-125 (peptide)
peptide: Ac-[αAllylPro]D[tBuAla][B5(4)]D[TfeGA]VAFK[PyrS2″][2F3MeF][Bta][GlnR]A-NH2
modifications: bridge 10-14; not fully specified (bridges); reading uncertain; also: Lys*3 and GlnR*3 marked *3
Turning to B13, the NanoBRET Abs IC50 in the experiment with beta-catenin (human) [1] was above 10000 nM. This molecule displayed a half-inhibitory concentration (IC50) in the experiment with beta-catenin (human) [2] below 50 nM.

B14: I-124 (peptide)
peptide: Ac-[αAllylPro]D[tBuAla][B5(4)]D[TfeGA]VAFK[PyrS2″][2F3MeF][Bta][GlnR]A-NH2
modifications: bridge 10-14; not fully specified (bridges); reading uncertain; also: Lys*3 and GlnR*3 marked *3
In the experiment with beta-catenin (human) [1], B14 registered a NanoBRET Abs IC50 above 10000 nM. This molecule also gave a half-maximal inhibitory concentration (IC50) with beta-catenin (human) [2] below 50 nM.

B15: I-52 (peptide)
peptide: Ac-[αAllylPro]D[tBuAla][B5(3)]D[Phe(3-COOH)]K(Me2Mal)AFL[PyrS2(3)][Phe(2-Cl)][Bta]K-NH2
modifications: not fully specified (residue 6, bridges); printed as Ac-PL3-Asp-Npg-B5-Asp-3COOHF-[Me2Mal]Lys-Ala-Phe-Leu-PyrS2-2ClF-BztA-Lys-NH2
B15: the half-inhibitory concentration (IC50) in the experiment with beta-catenin (human) [2] was below 50 nM.

B16: I-69 (peptide)
peptide: Ac-[αAllylPro]D[tBuAla][B5(3)]D[Phe(3-COOH)][Aib]AFK[PyrS2(3)][2F3MeF″][Bta][GlnR]A-NH2
modifications: bridge 10-14; not fully specified (bridges); printed as Ac-PL3-Asp-Npg-B5-Asp-3COOHF-Aib-Ala-Phe-Lys*3-PyrS2-2F3MeF-BztA-GlnR*3-Ala-NH2; reading uncertain
B16: the concentration for half-maximal inhibition (IC50) with beta-catenin (human) [2] was below 50 nM.

B17: I-4 (peptide)
peptide: Ac-[αAllylPro]DL[B5(5)]DDAAFK[PyrS2(5)][3Thi][Bta][GlnR]-NH2
modifications: bridge 10-14; not fully specified (bridges); printed as Ac-PL3-Asp-Leu-B5-Asp-Asp-Ala-Ala-Phe-Lys*3-PyrS2-3Thi-BztA-GlnR*3-NH2; reading uncertain
In the experiment with beta-catenin (human) [1], B17 showed a NanoBRET Abs IC50 above 10000 nM. This molecule showed an IC50 with beta-catenin (human) [2] below 50 nM.

B18: I-127 (peptide)
peptide: Ac-[αAllylPro]D[tBuAla][B5(4)]D[TfeGA]AAFK[PyrS2″][2F3MeF][Bta][GlnR][Aib]-NH2
modifications: bridge 10-14; not fully specified (bridges); reading uncertain; also: Lys*3 and GlnR*3 marked *3
With B18, the NanoBRET Abs IC50 (bin >3.0 uM) with beta-catenin (human) [1] was below 10000 nM. In the experiment with beta-catenin (human) [2], the concentration for half-maximal inhibition (IC50) was below 50 nM.

B19: I-80 (peptide)
peptide: Ac-[αAllylPro]N[tBuAla][B5(4)]D[Phe(3-COOH)]AAFK[PyrS2(6)][3Thi][Bta][GlnR]A-NH2
modifications: staple 1-4 (inferred); bridge 10-14; not fully specified (residue 10, bridges); printed as Ac-PL3-Asn-Npg-B5-Asp-3COOHF-Ala-Ala-Phe-Lys*3-PyrS2-3Thi-BztA-GlnR*3-Ala-NH2; reading uncertain
With B19, the half-inhibitory concentration (IC50) with beta-catenin (human) [2] is below 50 nM.

B20: I-135 (peptide)
peptide: Ac-[αAllylPro]D[tBuAla][B5]D[Phe(3-COOH)][GlnR](29N2spiroundecane)AFL[PyrS2][2F3MeF][Bta][GlnR]A-NH2
modifications: staple 1-4, 4-11 (inferred); not fully specified; printed as Ac-PL3-Asp-Npg-B5-Asp-3COOHF-[29N2spiroundecane]GlnR-Ala-Phe-Leu-PyrS2-2F3MeF-BztA-GlnR-Ala-NH2; reading uncertain; also: staple C=C reduced to CH2-CH2
For the molecule B20, in the experiment with beta-catenin (human) [1], the NanoBRET Abs IC50 is above 10000 nM. Also, the IC50 with beta-catenin (human) [2] was above 1000 nM.

B21: I-136 (peptide)
peptide: Ac-[αAllylPro]D[tBuAla][B5]D[Phe(3-COOH)]AAFK[PyrS2″][2F3MeF″][BztA″][GlnR]LS-NH2
modifications: bridge 10-14; not fully specified (bridges); printed as Ac-PL3-Asp-Npg-B5-Asp-3COOHF-Ala-Ala-Phe-Lys*3-PyrS2-2F3MeF-BztA-GlnR*3-Leu-Ser-NH2; reading uncertain; also: Lys10 and GlnR14 marked *3
Regarding B21, the NanoBRET Abs IC50 (bin >1.5 uM) with beta-catenin (human) [1] was below 3000 nM. The 50% inhibitory concentration (IC50) in the experiment with beta-catenin (human) [2] is below 50 nM.

B22: I-84 (peptide)
peptide: Ac-[PL3]N[tBuAla][B5]D[Phe(3-COOH)]SAFK[PyrS2″][3Thi][BztA][GlnR]A-NH2
modifications: staple 1-4 (inferred); bridge 10-14; not fully specified (residue 10, bridges); printed as Ac-PL3-Asn-Npg-B5-Asp-3COOHF-Ser-Ala-Phe-Lys*3-PyrS2-3Thi-BztA-GlnR*3-Ala-NH2; reading uncertain
Take B22: in the experiment with beta-catenin (human) [2], the IC50 is below 50 nM.
